The source of these data is paper PMC11254670, “Soluble CD72, is a T-cell activator probably via binding to CD6 in homeostasis and autoimmunity” (Frontiers in Immunology, 2024).

The assay has as its target T1, CD6 (human (endogenous in CD4+ T cells), UniProt P30203 18-668).
T1 sequence (looked up): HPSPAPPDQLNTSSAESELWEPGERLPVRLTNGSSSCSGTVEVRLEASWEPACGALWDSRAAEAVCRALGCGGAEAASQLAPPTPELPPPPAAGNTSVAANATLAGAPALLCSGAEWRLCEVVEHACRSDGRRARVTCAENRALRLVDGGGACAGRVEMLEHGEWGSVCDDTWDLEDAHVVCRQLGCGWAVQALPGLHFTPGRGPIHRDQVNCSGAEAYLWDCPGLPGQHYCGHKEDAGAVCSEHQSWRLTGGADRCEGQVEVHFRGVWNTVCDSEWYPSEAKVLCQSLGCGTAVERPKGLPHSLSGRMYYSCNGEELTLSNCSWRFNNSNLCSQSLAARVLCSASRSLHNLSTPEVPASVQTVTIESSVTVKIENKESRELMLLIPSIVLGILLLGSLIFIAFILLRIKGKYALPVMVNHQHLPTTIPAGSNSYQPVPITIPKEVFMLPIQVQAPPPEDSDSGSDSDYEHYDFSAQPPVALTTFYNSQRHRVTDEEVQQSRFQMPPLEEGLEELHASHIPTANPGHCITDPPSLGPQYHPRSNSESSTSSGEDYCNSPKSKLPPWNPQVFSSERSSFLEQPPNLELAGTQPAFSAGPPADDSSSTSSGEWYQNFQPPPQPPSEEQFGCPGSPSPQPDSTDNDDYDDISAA
As to the kind of experiment: cell-based or functional assay.

B1: soluble CD72 (extracellular part of human CD72, amino acids 117-359, V5 and 8xHis tagged) (domain or fragment, UniProt P21854 117-359, looked up)
chain: RYLQVSQQLQQTNRVLEVTNSSLRQQLRLKITQLGQSAEDLQGSRRELAQSQEALQVEQRAHQAAEGQLQACQADRQKTKETLQSEEQQRRALEQKLSNMENRLKPFFTCGSADTCCPSGWIMHQKSCFYISLTSKNWQESQKQCETLSSKLATFSEIYPQSHSYYFLNSLLPNGGSGNSYWTGLSSNKDWKLTDDTQRTRTYAQSSKCNKVHKTWSWWTLESESCRSSLPYICEMTAFRFPD
Regarding B1, the “phosphorylation of SLP-76 (Ser376), phospho/total ratio by western blot, activated CD4+ T cells stimulated with 2 ug/ml sCD72 against control” value was approximately 2 fold.
